PMC3683068
Like-named read-outs stand apart in the source and are kept apart here.

Columns and labels:
Assay in all cases: two-hybrid; mammalian two-hybrid in HEK-293 cells; GAL4-ASK1 fragments in pBIND, VP16-Nef in pACT, pG5luc reporter; firefly luciferase/Renilla 48 hrs after transfection, fold over the pACT-pBIND negative control
[1] = target: ASK1 (1-1051 aa), GAL4 fusion (UniProt Q99683)
[2] = target: ASK1 (1-345 aa), GAL4 fusion (UniProt Q99683)
[3] = target: ASK1 (1-1051 aa), GAL4 fusion (UniProt Q99683); remark: listed apart in the source
[4] = target: ASK1 (861-1051 aa), GAL4 fusion (UniProt Q99683)
[5] = target: ASK1 (1-1051 aa), GAL4 fusion (UniProt Q99683); remark: listed apart in the source
[6] = target: ASK1 (1-904 aa), GAL4 fusion (UniProt Q99683)
[7] = target: ASK1 (319-1051 aa), GAL4 fusion (UniProt Q99683)
[8] = target: ASK1 (1-1051 aa), GAL4 fusion (UniProt Q99683); remark: listed apart in the source
[9] = target: ASK1 (1-904 aa), GAL4 fusion (UniProt Q99683); remark: listed apart in the source

Substance | fold increase in luciferase/renilla over pACT-pBIND [1] | fold increase in luciferase/renilla over pACT-pBIND [2] | fold increase in luciferase/renilla over pACT-pBIND [3] | fold increase in luciferase/renilla over pACT-pBIND [4] | fold increase in luciferase/renilla over pACT-pBIND [5] | fold increase in luciferase/renilla over pACT-pBIND [6] | fold increase in luciferase/renilla over pACT-pBIND [7] | fold increase in luciferase/renilla over pACT-pBIND [8] | fold increase in luciferase/renilla over pACT-pBIND [9]
HIV-1 Nef (57-174 aa), VP16 fusion (domain or fragment) | 81.7 fold | – | – | – | – | – | – | – | –
HIV-1 Nef core domain (57-207 aa), VP16 fusion (domain or fragment) | 153 fold | 2.05 fold | 156 fold | 2.93 fold | 162 fold | 9.15 fold | 2.83 fold | 157 fold | 8.75 fold
